Here are results for two molecules from article PMC11554226 (2024).

The target of the test is receptor-binding domain (RBD) of SARS-CoV-2 prototype strain (SARS-CoV-2 prototype strain, UniProt P0DTC2). As to the kind of experiment: SPR. Background: Surface plasmon resonance follows binding to a sensor surface in real time, without labels.

Residue numbers refer to the chain shown, from its start. Names may count otherwise.

B1: Tnb04-1 R50Q (nanobody-Fc) (Fc fusion)
chain: EVQLVESGGGLVQPGGSLRLSCAASGSISTLNVMGWYRQAPGKQRELVAQITLDGRPEYADSVKGRFTITKDGAQSTLYLQMNNLKPEDTAVYFCKLENGGFFYYWGQGTQVTVSS
A word on the Kd: it is the equilibrium constant for the complex coming apart. Lower therefore signals a tighter complex. Take B1: binding was put at a Kd of 471 pM.

B2: Tnb04-1 R56S (nanobody-Fc) (Fc fusion)
chain: B1 chain with Q50R, R56S
Molecule B2 showed a dissociation constant Kd of 535 pM.
